# From the nanobody polyreactivity screen of Harvey et al. (2022)
# Assay: yeast display, Sf9 membrane polyspecificity reagent, FACS + sequencing; frameworks hold sequencing errors
# Method in brief: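 Sorting gates, low and high (top ~1%), were placed on anti-HA fluorescence to track expression and on streptavidin fluorescence to track reagent binding. A clone's polyreactivity label is taken from the gate it came out of. The reagent was 10% biotinylated, detergent-solubilized Sf9 membrane, applied for 1 hour at 4 °C to galactose-induced yeast display cells.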
row,Sequence,polyreactivity (PSR sort gate)
1,QVQLVESGGGLVQAGGSLRLSCAASGRTFPTYAMGWDRQAPGKERELVAAITTSGGSTYADSVMGRFTISRDNAKNTVYLQMNSLKPEDTAVYYCATRSFYGGYYYSSGSEFDYWGQGTQVTVSS,low polyreactivity
2,QVQLVESGGGLVQAGGSLRLSCAASGRTFPVYAMGWYRQAPGKERELVAGITGSGGRTYYADSVKGRFTISRDNAKNTVYLQMNSLKPEDTAVYYCAADRNLYWYQHEYCGQGTQVTVSS,low polyreactivity
3,QVQLVESGGGLVQAGGSLRLSCAASGRTFPVYAMGWYRQAPGKERELVATIRRRDGSTYADSVKGRFTISRDNAKNTVYLQMNSLKPEDTAVYYCNAAYRQATPWYYAWYDYWGQVTQVTVSS,high polyreactivity
4,QVQLVESGGGLVQAGGSLRLSCAASGRTFPWYAMGWYRQAPGKERELVAAITISGGRTYYADSVKGRFTISRDNAKNTVYLQMNSLKPEDTAVYYCAAKTSFRYFNYAKPSYGYDYWGQGTQVTVSS,high polyreactivity
5,QVQLVESGGGLVQAGGSLRLSCAASGRTFPYNARGLYRQAPGKERELVASITRRGGSTYYADSVKGRFTISLDNAKNSVYLQMNSVKPEDTAVYYCNAAYPYVRRYKYGYWGQGTLVTVSS,high polyreactivity
6,QVQLVESGGGLVQAGGSLRLSCAASGRTFPYYAKGWYRQAPGKERELVAAISKRGGNTYYADSVKGRFTISRDNAKNTVYLQLNSLIPEVTAVYYCNALSSTEYDYWGQGTQVTVSS,high polyreactivity
7,QVQLVESGGGLVQAGGSLRLSCAASGRTFPYYAMGWYRQAPGKERELVAAISSSGGRTYYADSVKGRFTISRDNAKNTVYLQMISLKPEDSAVYDCNVDAWYPYQGFLVGYYYWGQGTQVTVSS,low polyreactivity
8,QVQLVESGGGLVQAGGSLRLSCAASGRTFPYYAMGWYRQAPGKERELVATITYSGGSTYYADSVKGRFTISRDNAKNTVYLQMNSLKPEDTAVYYCAADTGEYSAQYDYWGQGTQVTVSS,high polyreactivity
9,QVQLVESGGGLVQAGGSLRLSCAASGRTFPYYDMGWYRQAPGKERELVAAITSGGTTNYADSVKGRFTISRDNAKNTVYLQMNSLKPEDTAVYYCAAGSPWYYFSSYGYWGQGTQVTVSS,low polyreactivity
10,QVQLVESGGGLVQAGGSLRLSCAASGRTFPYYTMGWYRQAPGKERELVAAINSSGGRTYYADSVKGRFTISRDNAKNTVYLQMNSLKPEDTAAYYCAKRGYYKYDWGQGTQVTVSS,high polyreactivity
11,QVQLVESGGGLVQAGGSLRLSCAASGRTFQDYALGWSRQAPGKEREFVADISDGGSTNYADSVKGRFTISRDNAKNTVYLQMNSLKPEVTAVYYCAADQYHGVGINFRSDYDYWGHGTQVTVSS,low polyreactivity
12,QVQLVESGGGLVQAGGSLRLSCAASGRTFQFYAMGWYRQAPGKERELVAAIDLRGGSTYYADSVKGRFTISRDNAKNTVYLQMNSLKPEDTAVYYCNATRSKFGYFYRYDYWGQGTQVTVSS,low polyreactivity
13,QVQLVESGGGLVQAGGSLRLSCAASGRTFQHYVMGWYRQAPGKERELVDSITNDDSTNYADSVKGRFTISRDNAKITVYLQMNRLKPEDTAVYYCNFDDWGTPVEPGDYDYWGQGTQVTVSS,low polyreactivity
14,QVQLVESGGGLVQAGGSLRLSCAASGRTFQNNAMGWYRQAPGKERELVAAISRSGASTYYADSVKGRFTISRDNAKNTVYLQMNSLKPEATAVYYCAAVTKLGYPPVNHLEDDYWGQGTQVTVSS,low polyreactivity
15,QVQLVESGGGLVQAGGSLRLSCAASGRTFQNNAMGWYRQAPGKERELVAAISWRGTSTYYADSVKGRFTISRDNANNTVYLQMNSLKPEDTAVYYCAAYPKYGFEFKYGYWGQGTQVTVSS,high polyreactivity
16,QVQLVESGGGLVQAGGSLRLSCAASGRTFQQNAMGWYRQAPGKERELVAAINSRGGRTYYADSVKGRFTISRDNAKNTVYLQMNSLKPEDTAVYYCNAVVYTRPYTRPRYRYDYWGQGTQVTVSS,high polyreactivity
17,QVQLVESGGGLVQAGGSLRLSCAASGRTFQRNAMGWYRQAPGKERELVAAITTGSRTYYADSVKGRFTISRDNAKNTVYLQMNSLKPEDTAFYYCAAVATRRDYGYWGQGTQVTVLS,high polyreactivity
18,QVQLVESGGGLVQAGGSLRLSCAASGRTFQRYAMGWYRQAPGKERELVAAISFSGGSTYYADSVKGRFTISRDNAKNTVYLQMNSLKPEDTAVYYCAAYHARSGYDSWGQGTQVTVSS,high polyreactivity
19,QVQLVESGGGLVQAGGSLRLSCAASGRTFQTNVMGWYRQAPGKERELVAAISKTGGRTYYADSVKGRFTISRDNAKNTVYLQMNSLKPEDTAVYYCAADSSGYEDYDYWGQGTQVTVSS,high polyreactivity
20,QVQLVESGGGLVQAGGSLRLSCAASGRTFQWYAMGWYRQAPGKERELVAAISYSDASTYYADSVKGRFTISRDNAKNTVYLQMNSLKPEDTAVYYCAAVYYVVYGPWGGSYYWGQGTQVTVSS,low polyreactivity
21,QVQLVESGGGLVQAGGSLRLSCAASGRTFQWYVMGWYRQAPGKERELVAAITKSGGSTFYADSVKGRFTISRDNAKNTVYLQMNSLKPEDTAVYYCAASGRYAIVLGDQYYGYYYWGQGTQVTVSS,high polyreactivity
22,QVQLVESGGGLVQAGGSLRLSCAASGRTFQYNTMGWYRQAPGKERELVAAISWSGGRTYYADSVKGRFTISRDNAKNTVYLQMNSLKPEDTAVYYCAADGTPEIRDNYWGQGTQVTVSS,high polyreactivity

row,Sequence,polyreactivity (PSR sort gate)
1,QVQLVESGGGLVQAGGSLRLSCAASGRTFQYYAMGWYRQAPGKERELVATISYSGGSTSYADSVKGRFTISRDNAKNTVYLQMNSLKPEDTAVYYCAADYYYGDALSPYYPHWDFYYWGQGTQVTVSS,low polyreactivity
2,QVQLVESGGGLVQAGGSLRLSCAASGRTFRANAMGWYRQAPGKERELVAAISKRGGNTYYADSVKGRFTISRDNAKYTVYLQMNSLKPEDTAVYYCAAHFIGRDYDYWGQGTQVTVSS,high polyreactivity
3,QVQLVESGGGLVQAGGSLRLSCAASGRTFRANTMGWYRQAPGKERELVAAISHSGGSTYYADSVKGRFTISRDNAKYTVYLQMISLKPEDTAVYYCATDGGSYSWASPRVDYWGQGTQVTVSS,low polyreactivity
4,QVQLVESGGGLVQAGGSLRLSCAASGRTFRAYAMGWNRQPPGKVRELVAVISLSGGSTYYADSVKGRFTISRDNAKNTVYLQMNSLKPEDTAVYYCAAVDWSYTGWRYDYWGQGTQVTVSS,low polyreactivity
5,QVQLVESGGGLVQAGGSLRLSCAASGRTFRAYGMGWYRQAPGKERELVAVISWRDGSTFYADSVKGRFTISRDNAKNTVYLQMNSLNPEDTAVYYCNTAYYPGNYSQYDYWGQGTQVTVSS,low polyreactivity
6,QVQLVESGGGLVQAGGSLRLSCAASGRTFRDNAMGWYRQAPGKDRELVAAIDIDSSTYYADSVEGRFTISRDNAKNTVYLQMNSLKPEDTAVYYCAAESYHDGKGFPDYEYWGQGTQVTVSS,low polyreactivity
7,QVQLVESGGGLVQAGGSLRLSCAASGRTFRDYAMGWYRQEPGKESELVAAITWIGGTTYYADSVKGRFTISRDNAKNTVYLQMNSLKPEDTAVYYCAKKRYHWYGRYYYWGQGTQVTVSS,high polyreactivity
8,QVQLVESGGGLVQAGGSLRLSCAASGRTFRFDAMGWYRQAPGKEREFVAAISRSVGSTYYADSVKGRFTISRDNAKTTVYLQMNSLKPEDTAVYYCNGDYRSRYVEYDYWGQGTQVTVSS,high polyreactivity
9,QVQLVESGGGLVQAGGSLRLSCAASGRTFRFNAMGWYRPAPGKERELVAAIRWSGSSTYYADSVKGRFTISRDNAKNTVYLQMNSLKPEDTAVYYSAKRVKTTWFGYWGQGTQVTVSS,high polyreactivity
10,QVQLVESGGGLVQAGGSLRLSCAASGRTFRFNAMGWYRQAPGKERELVAAISSGGNTYYADSVKGRFTISRDNAKNTVYLQMNSLKPEDTAVYYCNTVYLYGTHDYWGQGTQVTVSS,low polyreactivity
11,QVQLVESGGGLVQAGGSLRLSCAASGRTFRFYAMGWSRQAPGKEREMVAAISYSGGSTYYADSVKGRFTISRDNAKNTVYLQMNSLKPEDTAVYYCAAPYYRSTTSYDYWGQGTQVTVSS,high polyreactivity
12,QVQLVESGGGLVQAGGSLRLSCAASGRTFRFYAMGWYRQAPGKERELVAAISWNGGRTYYADSVKGRFTISRDNAKNTVYLQMNSLKPEDTAFYYCAKDRGGPFYWRYPLGYWGQGTQVTVSS,high polyreactivity
13,QVQLVESGGGLVQAGGSLRLSCAASGRTFRFYAMGWYRQAPGKERELVAAITYRGGTYYADSVKGRFTISRDNAKNTVYLQMNSLKPEDTAVYYCAVKPSGWSGMDYWGQGTQVTVSS,high polyreactivity
14,QVQLVESGGGLVQAGGSLRLSCAASGRTFRGNAMGWDRQAPVKERELVAAITWGVGSTYYADSVKGRFTISRDNAKNTVYLQMNSLKPEDTAVYYCATRSYRGRDGFGYWGQGTQVTVSS,high polyreactivity
15,QVQLVESGGGLVQAGGSLRLSCAASGRTFRGNAMGWNRQTHGKERELVAAISWSGGRTYYADSVKGRFTISRDNAKNSVYLQMNSLKPEDTAVYDCAAVVPKYGQAGYDYWGQGTQVSVSS,high polyreactivity
16,QVQLVESGGGLVQAGGSLRLSCAASGRTFRGNAMGWYRPAPGKERELVAAITTAGGTYYADSVKGRFTISRDNAKNTVYLQMNSLKPEDTAVYYCAKLSHRGQSTGVDYWGQGTQVTVSS,low polyreactivity
17,QVQLVESGGGLVQAGGSLRLSCAASGRTFRGNAMGWYRQAPGKERELVAAISRRGVSTYYADSVKGRFTISRDNAKNTVYLQMNSLKPEDTAVYYCAVVVYQGFRSKYYYWGQGTQVTVSS,high polyreactivity
18,QVQLVESGGGLVQAGGSLRLSCAASGRTFRGNTMGWYRQAPGKERELVAAISRGGSTNYADSVKGRFTISRDNTKNTVYLQMNSLTPEDTAVYYCAKDRYVRWGRTFEFDYWGQGTQVTVSS,low polyreactivity
19,QVQLVESGGGLVQAGGSLRLSCAASGRTFRGYAMGWYRQAPGKERELVAGITQRGGTTYYADSVKGRFTISRDNAKNTVYLQMNSLKPEDSAVYYCAAAFGRVTKYGYRNQYGYWGHGTQVTVSS,high polyreactivity
20,QVQLVESGGGLVQAGGSLRLSCAASGRTFRINAMGWYRQAPGKERELVAAINDGGDTYADSVKGRFTISRDNAKNTVYLQMNSLKPEDTAVYYCAVRILTNRWYYGYWGQGTQVTVSS,low polyreactivity
21,QVQLVESGGGLVQAGGSLRLSCAASGRTFRINAMGWYRQAPGKERELVAAITRGDTNYADSVKGRFTISRDNAKNTVYLQMNSLKPEDTAVYYCNAELSFRYPVFRELDYWGQGTQVTVSS,low polyreactivity
